Residue numbers refer to the chain shown, from its start.

In PMC4150783 one finds binding result and binding signal data, which are given here for six molecules.

Data set [1] deals with T1, Pot1-DBD (Schizosaccharomyces pombe, UniProt O13988 1-339).
T1 sequence: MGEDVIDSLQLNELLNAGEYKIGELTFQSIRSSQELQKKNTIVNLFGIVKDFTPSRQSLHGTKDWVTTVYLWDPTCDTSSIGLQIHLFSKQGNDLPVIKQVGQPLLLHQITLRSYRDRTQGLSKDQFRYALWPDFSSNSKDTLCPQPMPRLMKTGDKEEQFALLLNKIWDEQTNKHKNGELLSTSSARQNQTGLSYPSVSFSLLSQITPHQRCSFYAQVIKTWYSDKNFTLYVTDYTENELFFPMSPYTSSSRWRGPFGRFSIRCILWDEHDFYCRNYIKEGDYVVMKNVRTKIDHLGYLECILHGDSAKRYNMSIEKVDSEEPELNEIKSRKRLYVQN
Put plainly: SEC-MALS.

The next data set deals with T2, Pot1-DBD_Y224A (Schizosaccharomyces pombe, UniProt O13988 1-339, Y224A).
T2 sequence: T1 sequence with Y224A
Kind of data set: SEC-MALS.

Data set [2] deals with T1, Pot1-DBD. Put plainly: NMR.
The target in another data set is T3, Pot1pC_Y224A (Schizosaccharomyces pombe, UniProt O13988 198-339, Y224A).
T3 sequence: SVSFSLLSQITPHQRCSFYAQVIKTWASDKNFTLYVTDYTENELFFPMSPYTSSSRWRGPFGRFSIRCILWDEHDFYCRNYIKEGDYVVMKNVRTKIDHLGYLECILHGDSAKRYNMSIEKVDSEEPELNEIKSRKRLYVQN
Kind of data set: ITC.

The target of another data set is T4, Pot1pC (Schizosaccharomyces pombe, UniProt O13988 198-339).
T4 sequence: T3 sequence with A27Y
Kind of data set: NMR.

The target in the next data set is T5, Pot1pN (Schizosaccharomyces pombe, UniProt O13988 1-187).
T5 sequence: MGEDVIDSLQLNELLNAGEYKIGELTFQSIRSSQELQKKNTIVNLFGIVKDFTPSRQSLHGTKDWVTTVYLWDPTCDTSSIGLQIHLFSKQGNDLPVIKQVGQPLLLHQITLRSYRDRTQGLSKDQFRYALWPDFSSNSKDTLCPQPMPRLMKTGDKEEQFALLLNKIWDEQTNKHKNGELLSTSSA
Put plainly: NMR.

Data set [3] has as its target T1, Pot1-DBD. Put plainly: SEC-MALS. The source holds these as a separate data set. In general terms: Size exclusion chromatography separates by hydrodynamic size, large species first.
Data set [4] concerns the target T1, Pot1-DBD. Put plainly: EMSA. (A gel shift assay detects complexes by their altered migration in electrophoresis.)

B1: 15mer_G13C (ssDNA)
DNA: GGTTACGGTTACCGT
B1: the binding result with Pot1-DBD [1] is on record as “binds”.

B2: 15mer (ssDNA)
DNA: GGTTACGGTTACGGT
Take B2: the binding result with Pot1-DBD_Y224A and with Pot1-DBD [2] was “binds” throughout.

B3: 9mer (ssDNA)
DNA: GGTTACGGT
For the molecule B3, in the data set with Pot1pC_Y224A, the binding signal was ~10 fold weaker than Pot1pC wild type. In addition, in the data set with Pot1pC, the binding result was “binds”.

B4: 6mer (ssDNA)
DNA: GGTTAC
In the case of B4, in the data set with Pot1pN, the binding result is listed as “binds”.

B5: 12mer_T9A (ssDNA)
DNA: GGTTACGGATAC
Take B5: the binding result with Pot1-DBD [3] was “binds”.

B6: 12mer (ssDNA)
DNA: GGTTACGGTTAC
Regarding B6, the binding result with Pot1-DBD [4] is recorded as “binds”.
